The text below walks through data of PMC11980541, “3D meshwork architecture of the outer coat protein CotE: implications for bacterial endospore sporulation and germination” (mBio, 2025).

The target in test [1] is CotE (outer coat protein CotE). To be noted: PBS pH 7.2, 25 °C; 100 µM protein in cell, 1 mM DPA in syringe; C-terminal His-tagged trimeric mutant.
The target of test [2] is W65E variant CotE protein, C-terminal His-tagged (Bacillus cereus). The experiment in a line: SEC-MALS; Superdex 75 Increase 10/300 GL, 2 mg/mL protein, 20 mM Tris pH 8.0.
In test [3] the target is wild-type CotE protein from Bacillus cereus (Bacillus cereus). Nature of the test: SEC; Superdex 200 Increase 10/300 GL, 20 mM Tris-HCl pH 8.0, no CaCl2; CotE 5 mg/mL; apparent molecular weight from a calibration curve.
For test [4] the target is unchanged. The experiment in a line: SEC; Superdex 200 Increase 10/300 GL, 20 mM Tris-HCl pH 8.0 with 5 mM CaCl2; CotE 5 mg/mL; apparent molecular weight from a calibration curve. Background: SEC sorts molecules by how far they enter the pores of the column.
Test [5] shares this target. The experiment in a line: cryo-EM structure; CotE 2 mg/mL with 5 mM CaCl2 (meshwork); C3 map of the trimer unit at 6.55 Å and C2 map of two joined trimers at 6.86 Å; AlphaFold2 trimer models fitted.

With `O=C(O)c1cccc(C(=O)O)n1` [DPA, dipicolinic acid], the Kd in test [1] is 6.3 µM.
In the case of “W65E variant CotE protein, C-terminal His-tagged (natural protein)”, in test [2], the stoichiometry N came to 3.
“wild-type CotE protein from Bacillus cereus (natural protein)”: the stoichiometry N is 12 in test [3], more than 100 in test [4] and 3 in test [5].

The Kd is a measure of binding affinity in units of concentration. A higher Kd goes with a looser complex. In general, stoichiometry N refers to the number of molecules, sites or subunits per partner or assembly.
